In the supplement of paper PMC11246515:
± gives the standard deviation of the averaged measurements.

Assay: total protein half-life in vivo (active degradation + dilution); higher = more stable protein
[1] = E. coli NCM3722 delta-clpP delta-lon delta-hslV, growth: N-lim chemostat, doubling time 6 h
[2] = E. coli NCM3722 delta-lon, growth: N-lim chemostat, doubling time 6 h
[3] = wild type E. coli NCM3722, growth: C-lim chemostat, doubling time 3 h
[4] = wild type E. coli NCM3722, growth: C-lim chemostat, doubling time 6 h
[5] = wild type E. coli NCM3722, growth: C-lim chemostat, doubling time 12 h
[6] = wild type E. coli NCM3722, growth: N-lim chemostat, doubling time 6 h
[7] = wild type E. coli NCM3722, growth: P-lim chemostat, doubling time 6 h
[8] = wild type E. coli NCM3722, growth: P-lim chemostat, doubling time 12 h
[9] = E. coli NCM3722 delta-clpP, growth: N-lim chemostat, doubling time 6 h
[10] = E. coli NCM3722 delta-hslV, growth: N-lim chemostat, doubling time 6 h
[11] = E. coli NCM3722 delta-smpB, growth: N-lim chemostat, doubling time 6 h
[12] = wild type E. coli NCM3722, growth: N-lim chemostat, doubling time 12 h

Sequence	total protein half-life in vivo [1]	total protein half-life in vivo [2]	total protein half-life in vivo [3]	total protein half-life in vivo [4]	total protein half-life in vivo [5]	total protein half-life in vivo [6]	total protein half-life in vivo [7]	total protein half-life in vivo [8]	total protein half-life in vivo [9]	total protein half-life in vivo [10]	total protein half-life in vivo [11]	total protein half-life in vivo [12]
MSRPTIIINDLDAERIDILLEQPAYAGLPIADALNAELDRAQMCSPEEMPHDVVTMNSRVKFRNLSDGEVRVRTLVYPAKMTDSNTQLSVMAPVGAALLGLRVGDSIHWELPGGVATHLEVLELEYQPEAAGDYLL [P0AFW4]	4.22 ± 0.14 h	1.49 h	1.02 ± 0.099 h	1.55 ± 0.086 h	2.08 ± 0.0038 h	1.43 ± 0.68 h	1.36 h	2.53 h				
MSRRLRRTKIVTTLGPATDRDNNLEKVIAAGANVVRMNFSHGSPEDHKMRADKVREIAAKLGRHVAILGDLQGPKIRVSTFKEGKVFLNIGDKFLLDANLGKGEGDKEKVGIDYKGLPADVVPGDILLLDDGRVQLKVLEVQGMKVFTEVTVGGPLSNNKGINKLGGGLSAEALTEKDKADIKTAALIGVDYLAVSFPRCGEDLNYARRLARDAGCDAKIVAKVERAEAVCSQDAMDDIILASDVVMVARGDLGVEIGDPELVGIQKALIRRARQLNRAVITATQMMESMITNPMPTRAEVMDVANAVLDGTDAVMLSAETAAGQYPSETVAAMARVCLGAEKIPSINVSKHRLDVQFDNVEEAIAMSAMYAANHLKGVTAIITMTESGRTALMTSRISSGLPIFAMSRHERTLNLTALYRGVTPVHFDSANDGVAAASEAVNLLRDKGYLMSGDLVIVTQGDVMSTVGSTNTTRILTVE	5.558 ± 0.04 h	5.61 ± 0.28 h	3.02 ± 0.11 h	5.989 ± 0.05 h	11.4 ± 0.78 h	5.4882 ± 0.00083 h	5.96 ± 0.26 h	13.1 ± 0.68 h	5.39 ± 0.19 h	5.15 ± 0.41 h	5.32 ± 0.27 h	9.898 ± 0.052 h
MSSFDYLKTAIKQQGCTLQQVADASGMTKGYLSQLLNAKIKSPSAQKLEALHRFLGLEFPRQKKTIGVVFGKFYPLHTGHIYLIQRACSQVDELHIIMGFDDTRDRALFEDSAMSQQPTVPDRLRWLLQTFKYQKNIRIHAFNEEGMEPYPHGWDVWSNGIKKFMAEKGIQPDLIYTSEEADAPQYMEHLGIETVLVDPKRTFMSISGAQIRENPFRYWEYIPTEVKPFFVRTVAILGGESSGKSTLVNKLANIFNTTSAWEYGRDYVFSHLGGDEIALQYSDYDKIALGHAQYIDFAVKYANKVAFIDTDFVTTQAFCKKYEGREHPFVQALIDEYRFDLVILLENNTPWVADGLRSLGSSVDRKEFQNLLVEMLEENNIEFVRVEEEDYDSRFLRCVELVREMMGEQR	5.91 ± 0.15 h	6.4 ± 0.35 h	2.975 ± 0.013 h	5.76 ± 0.61 h	10.5 ± 1.5 h	5.3 ± 0.24 h	5.97 ± 0.31 h	10.8 ± 0.14 h		5.88 ± 0.4 h	5.71 ± 0.23 h	10.6 ± 1.9 h
MSSISLIQPDRDLFSWPQYWAACFGPAPFLPMSREEMDQLGWDSCDIILVTGDAYVDHPSFGMAICGRMLEAQGFRVGIIAQPDWSSKDDFMRLGKPNLFFGVTAGNMDSMINRYTADRRLRHDDAYTPDNVAGKRPDRATLVYTQRCKEAWKDVPVILGGIEASLRRTAHYDYWSDTVRRSVLVDSKADMLMFGNGERPLVEVAHRLAMGEPISEIRDVRNTAIIVKEALPGWSGVDSTRLDTPGKIDPIPHPYGEDLPCADNKPVAPKKQEAKAVTVQPPRPKPWEKTYVLLPSFEKVKGDKVLYAHASRILHHETNPGCARALMQKHGDRYVWINPPAIPLSTEEMDSVFALPYKRVPHPAYGNARIPAYEMIRFSVNIMRGCFGGCSFCSITEHEGRIIQSRSEDSIINEIEAIRDTVPGFTGVISDLGGPTANMYMLRCKSPRAEQTCRRLSCVYPDICPHMDTNHEPTINLYRRARDLKGIKKILIASGVRYDIAVEDPRYIKELATHHVGGYLKIAPEHTEEGPLSKMMKPGMGSYDRFKELFDTYSKQAGKEQYLIPYFISAHPGTRDEDMVNLALWLKKHRFRLDQVQNFYPSPLANSTTMYYTGKNPLAKIGYKSEDVFVPKGDKQRRLHKALLRYHDPANWPLIRQALEAMGKKHLIGSRRDCLVPAPTIEEMREARRQNRNTRPALTKHTPMATQRQTPATAKKASSTQSRPVNAGAKKRPKAAVGR	5.41 ± 1.1 h	0.614 h	0.206 h					1.72 h	1.08 h			
MSSKVEQLRAQLNERILVLDGGMGTMIQSYRLNEADFRGERFADWPCDLKGNNDLLVLSKPEVIAAIHNAYFEAGADIIETNTFNSTTIAMADYQMESLSAEINFAAAKLARACADEWTARTPEKPRYVAGVLGPTNRTASISPDVNDPAFRNITFDGLVAAYRESTKALVEGGADLILIETVFDTLNAKAAVFAVKTEFEALGVELPIMISGTITDASGRTLSGQTTEAFYNSLRHAEALTFGLNCALGPDELRQYVQELSRIAECYVTAHPNAGLPNAFGEYDLDADTMAKQIREWAQAGFLNIVGGCCGTTPQHIAAMSRAVEGLAPRKLPEIPVACRLSGLEPLNIGEDSLFVNVGERTNVTGSAKFKRLIKEEKYSEALDVARQQVENGAQIIDINMDEGMLDAEAAMVRFLNLIAGEPDIARVPIMIDSSKWDVIEKGLKCIQGKGIVNSISMKEGVDAFIHHAKLLRRYGAAVVVMAFDEQGQADTRARKIEICRRAYKILTEEVGFPPEDIIFDPNIFAVATGIEEHNNYAQDFIGACEDIKRELPHALISGGVSNVSFSFRGNDPVREAIHAVFLYYAIRNGMDMGIVNAGQLAIYDDLPAELRDAVEDVILNRRDDGTERLLELAEKYRGSKTDDTANAQQAEWRSWEVNKRLEYSLVKGITEFIEQDTEEARQQATRPIEVIEGPLMDGMNVVGDLFGEGKMFLPQVVKSARVMKQAVAYLEPFIEASKEQGKTNGKMVIATVKGDVHDIGKNIVGVVLQCNNYEIVDLGVMVPAEKILRTAKEVNADLIGLSGLITPSLDEMVNVAKEMERQGFTIPLLIGGATTSKAHTAVKIEQNYSGPTVYVQNASRTVGVVAALLSDTQRDDFVARTRKEYETVRIQHGRKKPRTPPVTLEAARDNDFAFDWQAYTPPVAHRLGVQEVEASIETLRNYIDWTPFFMTWSLAGKYPRILEDEVVGVEAQRLFKDANDMLDKLSAEKTLNPRGVVGLFPANRVGDDIEIYRDETRTHVINVSHHLRQQTEKTGFANYCLADFVAPKLSGKADYIGAFAVTGGLEEDALADAFEAQHDDYNKIMVKALADRLAEAFAEYLHERVRKVYWGYAPNENLSNEELIRENYQGIRPAPGYPACPEHTEKATIWELLEVEKHTGMKLTESFAMWPGASVSGWYFSHPDSKYYAVAQIQRDQVEDYARRKGMSVTEVERWLAPNLGYDAD	5.12 ± 0.36 h	3.96 ± 0.33 h	2.73 ± 0.051 h	5.05 ± 0.14 h	8.09 ± 0.26 h	3.489 ± 0.028 h	5.43 ± 0.51 h	9.81 ± 0.4 h	4.3 ± 0.33 h	3.71 ± 0.047 h	3.31 ± 0.087 h	5.48 ± 0.14 h
